Experiments:
[1] = target: fusion protein of MBP with region 524-562 of human membrane-anchored form ADAM28 (SEQ ID NO: 2) at its … (human); test: Western blotting
Procedure: The reactivity of anti-human membrane-anchored form ADAM28 antibody 2B6D10 with the above-mentioned fusion proteins was evaluated by Western blotting.

[2] = target: T1, mouse membrane-anchored form ADAM28 (mouse, UniProt Q9JLN6 196-774); test: immunofluorescence staining of transfected CHO-K1 cells, 5 µg/ml antibody
T1 construct: Expressed on transfected CHO-K1 cells; also called mouse ADAM28m; mouse ADAM28
T1 chain: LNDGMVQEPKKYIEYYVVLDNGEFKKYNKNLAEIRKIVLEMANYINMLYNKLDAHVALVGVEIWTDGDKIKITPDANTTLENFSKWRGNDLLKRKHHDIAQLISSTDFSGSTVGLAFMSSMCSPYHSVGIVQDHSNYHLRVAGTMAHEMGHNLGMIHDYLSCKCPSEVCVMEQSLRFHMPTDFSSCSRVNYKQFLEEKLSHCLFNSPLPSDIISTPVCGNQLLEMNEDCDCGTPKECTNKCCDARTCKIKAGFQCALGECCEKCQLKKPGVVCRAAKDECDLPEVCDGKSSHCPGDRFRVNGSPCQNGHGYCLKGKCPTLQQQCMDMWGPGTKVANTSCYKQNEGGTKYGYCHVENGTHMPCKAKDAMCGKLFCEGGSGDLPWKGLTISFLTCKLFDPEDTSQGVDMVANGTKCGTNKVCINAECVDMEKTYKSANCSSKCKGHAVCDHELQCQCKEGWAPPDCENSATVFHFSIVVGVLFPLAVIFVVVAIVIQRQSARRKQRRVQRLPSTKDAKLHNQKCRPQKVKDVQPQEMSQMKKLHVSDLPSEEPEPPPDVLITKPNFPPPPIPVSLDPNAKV
Procedure: CHO-K1 cells co-transfected with mouse membrane-anchored form ADAM28 and EGFP were treated with 2B6D10 antibody (5 μg/ml) at 4° C. for 1.5 hr. The cells were washed and treated with anti-mouse IgG-Alexa555 (1:300) at 4° C. for 1 hr. The cells were washed, fixed and observed. The results are shown in, FIG. 3.

[3] = target: T2, MBP-human ADAM28m 524-659 (human, UniProt Q9UKQ2 524-659); test: SPR, BIAcore 3000, fusion protein amine-coupled on CM5 chip, antibody injected
T2 construct: also called the immunogen
T2 sequence: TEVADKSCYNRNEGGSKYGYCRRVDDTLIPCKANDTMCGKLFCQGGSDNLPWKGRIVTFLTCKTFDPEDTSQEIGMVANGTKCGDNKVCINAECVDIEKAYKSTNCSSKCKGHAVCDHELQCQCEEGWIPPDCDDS
Procedure: (§1) A fusion protein in which a 524-659 region of human membrane-anchored form ADAM28 (SEQ ID NO: 2) is added to C-terminal of MBP (MBP-human ADAM28m 524-659) and a fusion protein in which a 527-622 region of mouse membrane-anchored form ADAM28 (SEQ ID NO: 26) is added to C-terminal of MBP (MBP-mouse ADAM28m 527-622) were each immobilized on CM5 sensor chip (GE Healthcare Life Sciences, Buckinghamshire, UK) by amine-coupling and 2B6D10 antibody was injected to a flow cell by using BIAcore 3000 (GE Healthcare Life Sciences). The KD value was calculated from the measured Ka and Kd values.

[4] = target: T3, MBP-mouse ADAM28m 527-622 (mouse, UniProt Q9JLN6 527-622); test: as above
T3 sequence: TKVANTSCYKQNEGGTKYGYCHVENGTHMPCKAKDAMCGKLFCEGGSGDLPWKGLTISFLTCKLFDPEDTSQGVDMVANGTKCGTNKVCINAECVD
Procedure: as §1

B1: anti-human membrane-anchored form ADAM28 antibody 2B6D10 (antibody, V domains shown)
VH: QVQLQQSGAELARPGASVKLSCKASGYTFTSYGISWVKQRTGQGLEWIGEIYPRSGNTYYNEKFKGKATLTADKSSSTAYMELRRLTSEDSAVFFCARENVYSSNYGFAFWGQGTLVTVSA
VL: DVLMTQTPLSLPVSLGDQASISCRSSQNIIHSDGNTYLEWYLQKPGQSPKFLIYKVSNRFSGVPDRFSGSGSGTDFTLKISRVEAEDLGVYYCLQGSHVPWTFGGGTKLEIKR
notes: Mouse monoclonal antibody from a hybridoma, detected with anti-mouse IgG; also called 2B6D10 antibody; clone 2B6D10
binding result [1]: binds | binding result [2]: binds | Kd [3]: 0.0935 nM | Kd [4]: 0.236 nM

Reference: patent US20180044435A1 (GENEFRONTIER, published 2018)
